For assay [1], the system named is rhinovirus. Nature of the assay: Virus induced cytopathic effect in HeLa cell titration assay. In kind it is cell-based. On the technique in general: Protection from cytopathic effect is a common read-out in antiviral testing.
The subject of assay [2] is RV16. Nature of the assay: RV16 virus release, viral titration of BEAS2B supernatant. To be noted: BEAS2B cells treated 24 h with different doses of IFN-λ1 before infection. In kind it is cell-based, rhinovirus. As for the experimental part:
(§1) The human bronchial epithelial cell-line BEAS2B was infected with RV. TaqMan® PCR was used to identify IFN-λs mRNA expression and a bioassay was employed for corresponding protein production. BEAS2B cells were treated for 24 h with different doses of IFN-λ1 before infection with RV. Both TaqMan® PCR for viral RNA in cell lysates and viral titration of the BEAS2B supernatant were performed to investigate the antiviral effect.
(§2) The human bronchial epithelial cell-line BEAS2B and bronchial primary cells from asthmatics (6) and normal patients (5) were infected with RV16. TaqMan® PCR for IFN-λ mRNA expression was used. BEAS2B cells were treated with IFN-λ1 before infection with RV16. Both TaqMan® PCR for viral RNA in cell lysates and viral titration of the BEAS2B supernatant were performed to investigate the antiviral effect. TaqMan® PCR for viral RNA in cell lysates of primary cells was used also to test weather RV16 infectivity was different between primary cells from asthmatics and normals.

The test system of assay [3] is BEAS2B cells. As to the kind of experiment: Induction of type I and type III interferons in BEAS2B cells. The format is cell-based, human.
For assay [4], the system named is RV16. Nature of the assay: RV16 viral RNA in BEAS2B cell lysates, TaqMan PCR. The format is cell-based, rhinovirus. As to conditions: BEAS2B cells treated 24 h with different doses of IFN-λ1 before infection. As for the experimental part:
as §1, §2

For assay [5], the system named is rhinovirus. To be noted: general population volunteers, Higgins et al. 1986; cited from earlier work.
Assay [6] has as its system natural colds. As to conditions: Sperber et al. 1989; cited from earlier work.

B1: IFN-λ1: type III interferon, Interferon λ-1 also known as IL-29, amino acid sequence SEQ ID NO: 5 (protein, listed as Homo sapiens)
chain: MAAAWTVVLVTLVLGLAVAGPVPTSKPTTTGKGCHIGRFKSLSPQELASFKKARDALEESLKLKNWSCSSPVFPGNWDLRLLQVRERPVALEAELALTLKVLEAAAGPALEDVLDQPLHTLHHILSQLQACIQPQPTAGPRPRGRLHHWLHRLQEAPKKESAGCLEASVTFNLFRLLTRDLKYVADGNLCLRTSTHPEST
On to B1, for which the “virus induced cytopathic effect” value in assay [1] was “inhibited”. Also, the “virus release in the supernatant by viral titration” value in assay [2] was “dose-dependent anti-viral effect”; in assay [2] (listed as IFNλ-1), “reducing virus release”. For the same molecule, the “induction of IFNλ-1, IFNλ2-3 and interferon β” value in assay [3] was “induces itself as well as IFNλ2-3 and interferon β”. The “rhinovirus 16 viral RNA in cell lysates” value in assay [4] was “dose-dependent anti-viral effect”; in assay [4] (listed as IFNλ-1), “reducing rhinovirus 16 viral RNA expression”.

B2: IFN-β-ser: recombinant interferon-beta serine, nasal drops tested in published prophylaxis trials (protein, UniProt P01574 22-187, looked up, variant C17S)
Interferon beta: MSYNLLGFLQRSSNFQSQKLLWQLNGRLEYCLKDRMNFDIPEEIKQLQQFQKEDAALTIYEMLQNIFAIFRQDSSSTGWNETIVENLLANVYHQINHLKTVLEEKLEKEDFTRGKLMSSLHLKRYYGRILHYLKAKEYSHCAWTIVRVEILRNFYFINRLTGYLRN
With B2, the “effect against experimental rhinovirus infection” value in assay [5] is “promising beneficial effects”. Besides, the “prophylaxis of natural colds” value in assay [6] is on record as “ineffective”.

These data come from patent US8273342B2, “Anti-virus therapy for respiratory diseases” (University of Southampton, priority 2004, dated 2012).
